Measured values from IntAct's records for PubMed 21217703.

B1: Telomeric repeat-binding factor 2 (Homo sapiens), Q15554 (parent)
chain: MAAGAGTAGPASGPGVVRDPAASQPRKRPGREGGEGARRSDTMAGGGGSSDGSGRAAGRRASRSSGRARRGRHEPGLGGPAERGAGEARLEEAVNRWVLKFYFHEALRAFRGSRYGDFRQIRDIMQALLVRPLGKEHTVSRLLRVMQCLSRIEEGENLDCSFDMEAELTPLESAINVLEMIKTEFTLTEAVVESSRKLVKEAAVIICIKNKEFEKASKILKKHMSKDPTTQKLRNDLLNIIREKNLAHPVIQNFSYETFQQKMLRFLESHLDDAEPYLLTMAKKALKSESAASSTGKEDKQPAPGPVEKPPREPARQLRNPPTTIGMMTLKAAFKTLSGAQDSEAAFAKLDQKDLVLPTQALPASPALKNKRPRKDENESSAPADGEGGSELQPKNKRMTISRLVLEEDSQSTEPSAGLNSSQEAASAPPSKPTVLNQPLPGEKNPKVPKGKWNSSNGVEEKETWVEEDELFQVQAAPDEDSTTNITKKQKWTVEESEWVKAGVQKYGEGNWAAISKNYPFVNRTAVMIKDRWRTMKRLGMN
partner: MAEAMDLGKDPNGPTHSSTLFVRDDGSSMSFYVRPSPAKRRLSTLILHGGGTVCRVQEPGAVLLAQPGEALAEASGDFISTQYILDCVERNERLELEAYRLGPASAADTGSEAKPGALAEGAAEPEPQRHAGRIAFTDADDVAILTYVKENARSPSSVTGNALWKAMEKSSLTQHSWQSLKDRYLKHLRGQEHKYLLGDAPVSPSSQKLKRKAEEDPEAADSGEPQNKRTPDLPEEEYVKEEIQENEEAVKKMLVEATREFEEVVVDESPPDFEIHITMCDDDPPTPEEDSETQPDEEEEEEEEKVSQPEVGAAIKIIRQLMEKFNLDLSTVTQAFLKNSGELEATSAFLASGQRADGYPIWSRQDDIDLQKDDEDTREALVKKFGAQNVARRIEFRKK
B2: DNA-binding protein rap1 (Schizosaccharomyces pombe (strain ATCC 38366 / 972)), Q96TL7 (parent)
chain: MSFTFTKSDGSSILFAVSKNFEHIRGFKNAIDCFKGKIEFLSFDKVDPTKHDYYLVAEDERVSDLDIPKGFFERNPEFRHKMLKIAWITQCIEQGKLLPTESFEVELNQDDVNRTHDGFRKRELFTLEDEKILIDHVHKNDINRFGTKVYEELARKYPQHSLESWRQHYKYMKKRLPPVSDSDESNYCQRIIVKPYSSQKDYTQSTHEQTLSSPISKSASVSKSENKALVNNKRYSDSYFYFSKMRRISIDVDYVDEDLNLINAYLSQFGKKRSLNELCALLSRRFSNRHTFSEWRALFMHFFPFINSEGVDPAILSDRETSAMLDETSDNEVADIDDQMIERKYLFSASEPNTVKSTNRLIFSERKAYAADDSIDNTPSKVPIVNSLSDPRTNRPFFYSNPDSMYRSISNPLHLVDSQHLSPLNRKTHFNNPIGQPQFTCLDDHEKTLRETSFRSLDDMSLRKSNSDNIFVKPGEDLEIPLLSDYSDSENISEKSSDDEEAFEKQVTSSYSSPIKVKSQGKSSKGSSGLDVREHEGSDDDAEVFVDRSPESFGATKVAHTSLEGNAASHKKVEENMQQPVTKKQKKYRMVNEEAHTGPTIIIPSDNNEKVTTLPAGHVPSEEKGKFINLAMHELQNEVSILRSSVNHREVDEAIDNILRYTNSTEQQFLEAMESTGGRVRIAIAKLLSKQTS
partner: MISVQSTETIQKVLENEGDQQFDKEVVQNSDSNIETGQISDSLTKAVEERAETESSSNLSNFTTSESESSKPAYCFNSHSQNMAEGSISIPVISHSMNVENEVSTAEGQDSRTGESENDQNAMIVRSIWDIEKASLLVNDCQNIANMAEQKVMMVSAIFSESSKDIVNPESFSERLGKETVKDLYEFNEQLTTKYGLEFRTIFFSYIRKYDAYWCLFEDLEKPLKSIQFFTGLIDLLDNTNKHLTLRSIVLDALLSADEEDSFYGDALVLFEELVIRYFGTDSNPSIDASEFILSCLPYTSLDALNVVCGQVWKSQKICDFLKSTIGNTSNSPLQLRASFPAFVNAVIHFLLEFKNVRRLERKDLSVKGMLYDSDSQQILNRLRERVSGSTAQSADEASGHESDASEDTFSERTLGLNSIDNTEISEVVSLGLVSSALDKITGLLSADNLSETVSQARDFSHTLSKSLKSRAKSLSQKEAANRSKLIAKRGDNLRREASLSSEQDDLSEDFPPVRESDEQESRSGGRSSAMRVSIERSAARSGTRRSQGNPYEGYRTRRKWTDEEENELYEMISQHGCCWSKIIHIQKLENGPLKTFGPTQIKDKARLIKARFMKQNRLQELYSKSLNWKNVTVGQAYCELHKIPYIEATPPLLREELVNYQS
B3: DNA-binding protein RAP1 (Saccharomyces cerevisiae), P11938 (parent)
chain: MSSPDDFETAPAEYVDALDPSMVVVDSGSAAVTAPSDSAAEVKANQNEENTGATAAETSEKVDQTEVEKKDDDDTTEVGVTTTTPSIADTAATANIASTSGASVTEPTTDDTAADEKKEQVSGPPLSNMKFYLNRDADAHDSLNDIDQLARLIRANGGEVLDSKPRESKENVFIVSPYNHTNLPTVTPTYIKACCQSNSLLNMENYLVPYDNFREVVDSRLQEESHSNGVDNSNSNSDNKDSIRPKTEIISTNTNGATEDSTSEKVMVDAEQQARLQEQAQLLRQHVSSTASITSGGHNDLVQIEQPQKDTSNNNNSNVNDEDNDLLTQDNNPQTADEGNASFQAQRSMISRGALPSHNKASFTDEEDEFILDVVRKNPTRRTTHTLYDEISHYVPNHTGNSIRHRFRVYLSKRLEYVYEVDKFGKLVRDDDGNLIKTKVLPPSIKRKFSADEDYTLAIAVKKQFYRDLFQIDPDTGRSLITDEDTPTAIARRNMTMDPNHVPGSEPNFAAYRTQSRRGPIAREFFKHFAEEHAAHTENAWRDRFRKFLLAYGIDDYISYYEAEKAQNREPEPMKNLTNRPKRPGVPTPGNYNSAAKRARNYSSQRNVQPTANAASANAAAAAAAAASNSYAIPENELLDEDTMNFISSLKNDLSNISNSLPFEYPHEIAEAIRSDFSNEDIYDNIDPDTISFPPKIATTDLFLPLFFHFGSTRQFMDKLHEVISGDYEPSQAEKLVQDLCDETGIRKNFSTSILTCLSGDLMVFPRYFLNMFKDNVNPPPNVPGIWTHDDDESLKSNDQEQIRKLVKKHGTGRMEMRKRFFEKDLL
B4: Telomeric repeat-binding factor 2-interacting protein 1 (Homo sapiens), Q9NYB0 (parent)
chain: B1 partner
B5: Telomere length regulator taz1 (Schizosaccharomyces pombe (strain ATCC 38366 / 972)), P79005 (parent)
chain: B2 partner
partner: B2 chain

Variants of: B1
Details: with te2ip_human TERF2IP

Row | Variant | effect of a mutation on the interaction
1 | L330E | disrupting interaction strength
2 | L330R | disrupting interaction strength

Variants of: B2
Details: with taz1_schpo taz1, P79005

Row | Variant | effect of a mutation on the interaction
3 | V651R | decreasing interaction
4 | I655R | disrupting interaction

Variants of: B3
Details: with sir3_yeast SIR3, P06701
Sequence of sir3_yeast SIR3, P06701 (P06701 whole entry): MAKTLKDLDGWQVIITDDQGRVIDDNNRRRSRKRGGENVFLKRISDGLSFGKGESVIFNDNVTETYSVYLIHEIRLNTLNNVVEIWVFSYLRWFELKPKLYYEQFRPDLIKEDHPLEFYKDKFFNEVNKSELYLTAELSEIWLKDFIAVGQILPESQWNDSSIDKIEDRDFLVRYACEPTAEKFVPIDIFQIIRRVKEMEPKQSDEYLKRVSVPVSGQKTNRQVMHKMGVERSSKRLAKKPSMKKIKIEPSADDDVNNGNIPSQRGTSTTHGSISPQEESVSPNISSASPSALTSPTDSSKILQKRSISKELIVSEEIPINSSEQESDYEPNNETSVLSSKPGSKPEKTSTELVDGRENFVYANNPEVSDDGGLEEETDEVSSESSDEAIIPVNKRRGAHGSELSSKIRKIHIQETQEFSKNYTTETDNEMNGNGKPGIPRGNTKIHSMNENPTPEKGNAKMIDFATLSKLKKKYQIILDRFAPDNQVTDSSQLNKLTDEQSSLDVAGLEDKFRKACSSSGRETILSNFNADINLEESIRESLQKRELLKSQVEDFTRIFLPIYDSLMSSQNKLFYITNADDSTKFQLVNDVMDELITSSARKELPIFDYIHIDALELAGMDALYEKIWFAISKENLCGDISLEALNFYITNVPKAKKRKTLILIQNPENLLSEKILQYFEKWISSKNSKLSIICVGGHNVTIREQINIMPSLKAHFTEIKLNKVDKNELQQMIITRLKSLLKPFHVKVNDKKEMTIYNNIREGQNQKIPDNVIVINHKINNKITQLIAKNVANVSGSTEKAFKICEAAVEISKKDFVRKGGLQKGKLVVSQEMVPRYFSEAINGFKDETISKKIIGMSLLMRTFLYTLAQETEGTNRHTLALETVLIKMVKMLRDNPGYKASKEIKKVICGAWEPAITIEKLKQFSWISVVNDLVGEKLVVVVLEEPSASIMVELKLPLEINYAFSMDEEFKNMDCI

Row | Variant | effect of a mutation on the interaction
5 | P730R | decreasing interaction
6 | A733R | disrupting interaction
7 | V737R | disrupting interaction
8 | L755R | disrupting interaction
9 | G760R | disrupting interaction

Variants of: B4
Details: with terf2_human TERF2, Q15554

Row | Variant | effect of a mutation on the interaction
10 | MAEAMDLGKDPNGPTHSSTLFVRDDGSSMSFYVRPSPAKRRLSTLILHGGGTVCRVQEPGAVLLAQPGEALAEASGDFISTQYILDCVERNERLELEAYRLGPASAADTGSEAKPGALAEGAAEPEPQRHAGRIAFTDADDVAILTYVKENARSPSSVTGNALWKAMEKSSLTQHSWQSLKDRYLKHLRGQEHKYLLGDAPVSPSSQKLKRKAEEDPEAADSGEPQNKRTPDLPEEEYVKEEIQENEEAVKKMLVEATREFEEVVVDESPPDFEIHITMCDDDPPTPEEDSETQPDEEEEEEEEKVSQPEVGAAIKIRRQLMEKFNLDLSTVTQAFLKNSGELEATSAFLASGQRADGYPIWSRQDDIDLQKDDEDTREALVKKFGAQNVARRIEFRKK [I318R] | disrupting interaction
11 | MAEAMDLGKDPNGPTHSSTLFVRDDGSSMSFYVRPSPAKRRLSTLILHGGGTVCRVQEPGAVLLAQPGEALAEASGDFISTQYILDCVERNERLELEAYRLGPASAADTGSEAKPGALAEGAAEPEPQRHAGRIAFTDADDVAILTYVKENARSPSSVTGNALWKAMEKSSLTQHSWQSLKDRYLKHLRGQEHKYLLGDAPVSPSSQKLKRKAEEDPEAADSGEPQNKRTPDLPEEEYVKEEIQENEEAVKKMLVEATREFEEVVVDESPPDFEIHITMCDDDPPTPEEDSETQPDEEEEEEEEKVSQPEVGAAIKIIRQLMEKFNLDLSTVTQARLKNSGELEATSAFLASGQRADGYPIWSRQDDIDLQKDDEDTREALVKKFGAQNVARRIEFRKK [F336R] | disrupting interaction

Variants of: B5
Details: with rap1_schpo rap1, Q96TL7

Row | Variant | effect of a mutation on the interaction
12 | I379A | disrupting interaction strength
13 | I379R | disrupting interaction strength
14 | L380R | decreasing interaction
15 | L383A | disrupting interaction
16 | L383R | disrupting interaction
17 | R384E | decreasing interaction
18 | R386E | disrupting interaction

Variants of: B5
Details: with rap1_schpo rap1, Q96TL7
Remark: another data set of the same source

Row | Variant | effect of a mutation on the interaction
19 | I379R | disrupting interaction
20 | V387R | decreasing interaction
